Measured values: patent US20030059827A1, “Engineered protein binding domains and methods and systems for their design and use” (priority 2001, published 2003)
Where two headings read alike, the source gives them in different places.

Legend:
[1] = target: GFP (Aequorea victoria, UniProt P42212, F64L/H231L/S65T); settings: 6XHis-PDZ on Ni-NTA agarose, E. coli extract, anti-GFP Western blot
Source text: (§1) To carry out the affinity chromatography assay, bacterially-expressed PDZ domains and EGFP derivatives were produced and fused to the different target peptides. The original and modified PDZ domains were expressed in E. coli XL1-Blue as fusions with 6XHis. The EGFP-peptides fusions were expressed in E. coli BL21 as described in Sambrook et al, 1989, Molecular Cloning: A Laboratory Manual, 2nd Ed., Vol 3. The bacterially expressed PDZ domains were then bound to nickel resin (Ni-NTA agarose, Quiagen) as described by the manufacturer. The resin-bound PDZ domains were then incubated with E.coli extracts made from bacteria expressing each of the target peptide-GFP fusions and washed four times with 50 mM NaH2PO4, 300 mM NaCl; 20 mM Imidazole; 0,1% of TritonX-100 to remove any unbound proteins. The bound proteins were eluted using 50 mM NaH2PO4, 300 mM NaCl; 200 mM Imidazole and analyzed by Western blot using antibodies against GFP to determine the presence of EGFP fused to the target peptide.

[2] = target: GFP fused to the C-terminal peptide recognized by the original PDZ (pep, CRIPT) (Aequorea victoria, UniProt P42212, F64L/H231L/S65T); settings: 6XHis-PDZ on Ni-NTA agarose, E. coli extract, anti-GFP Western blot
Source text: as §1

[3] = target: GFP fused to the Eg5 C-terminal peptide (Mus musculus, UniProt Q6P9P6); settings: 6XHis-PDZ on Ni-NTA agarose, E. coli extract, anti-GFP Western blot
Source text: as §1

[4] = target: T1, Biotin-GG-KQTSV (Homo sapiens, UniProt Q9P021); test: Micro-calorimetric assay; format: binding
T1 construct: with its natural target (Biotin-GG-KQTSV)
Source text: Physical methods for measuring the dissociation (or affinity) constant include iso-thermal calorimetry, surface plasmon resonance, analytical ultra-centrifagation (where appropriate), and so forth. Iso-thermal calorimetry is the preferred method. Iso-thermal calorimetry measures the heat released when a binding polypeptide binds to its target under constant-temperature, constant-pressure conditions. From these measurements, the thermodynamic parameters of this binding can be routinely determined by the methods of physical chemistry. For example, it is routinely possible to obtain the binding affinity (or dissociation constant), the stoichiometry of binding (n), the heat (or enthalpy) of binding (H), the heat capacity of binding, the entropy of binding, and so forth. Current micro-iso-thermal machines are readily available commercially. Such machines are fully automatic, directly returning the above thermodynamic results. See, e.g., MicoCal, LLC, Northampton. Mass.; www.microcalorimetry.com.
FIG. 14 illustrates the routine use of micro-calorimetry to determine the binding parameters of the wild-type PDZ (PDZ3 of PSD095) domain with its natural target (Biotin-GG-KQTSV). This figure present the output of an automated micro-calorimetry experiment returning the stoichiometry constant (n), the affinity constant (K), the enthalpy of binding (H), and the entropy of binding (S).

[5] = target: GFP-PEP (natural target peptide of the PDZ-3 domain, C-terminus of CRIPT) (Aequorea victoria, UniProt P42212, F64L/H231L/S65T); settings: PDZ fused to Gal4 activation domain, GFP-pep fused to Gal4 binding domain, SD lacking Trp, Leu, His, Adenine
Method: The two parts of the yeast two-hybrid system were prepared as follows. On one hand, either of the GFP derivatives carrying the C-terminal protein sequences (GFP-pep and GFP-Eg5) were cloned between the NcoI and BamHI sites the pGBKT7 plasmid (Clontech) to obtain a fusion with the DNA binding domain of Gal4. On the other hand, the modified PDZ domains were cloned between the EcoRI and XhoI sites of pGADT7 (Clontech) to obtain a fusion with the activation domain of Gal4. The resulting plasmids were introduced in the yeast strain J569a using the method described by Agatep et al, 1998. Yeast cells were plated in SD lacking Trp and Leu, and then stricken in selective SD medium lacking Trp, Leu, His, and Adenine. Cells only grow in this selective medium if there is an interaction between the expression products of the two plasmids.
Yeast cells transfected with only one of the two plasmids were also tested as controls.

B1: PDZ-3: third PDZ domain of the mouse PSD-95 protein, amino acid 302 to 402; unmodified redesign precursor (protein, UniProt Q62108 302-402, looked up, fragment)
chain: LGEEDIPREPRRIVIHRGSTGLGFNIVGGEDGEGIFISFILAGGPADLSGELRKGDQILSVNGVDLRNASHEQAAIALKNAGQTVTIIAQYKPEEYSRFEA
modifications: PDZ 3
notes: third PDZ domain of the mouse PSD-95 protein, amino acid 302 to 402; unmodified redesign precursor
Q: Which “binding of GFP alone to immobilized PDZ domain” value [1] does the source give for B1 here?
A: The value was “not able to bind”.

Q: And the “binding of GFP-pep fusion to immobilized PDZ domain” value [2]?
A: Its value is “binds only to its naturally recognized target peptide”.

Q: What about the “binding of GFP-pep fusion to immobilized PDZ domain” value ([2]; listed as original PDZ) of the same molecule?
A: Its value is “very efficiently bind”.

Q: And the “binding of GFP-Eg5 fusion to immobilized PDZ domain” value [3]?
A: The value was “not able to bind”.

Q: What about the Kd ([4]; corresponding to the measured affinity constant, read-out: dissociation constant) of the same molecule?
A: The Kd was 39 µM.

Q: What about the “affinity constant (K)” value ([4]; micro-calorimetry, natural target Biotin-GG-KQTSV) of the same molecule?
A: The value was 25700 M⁻¹.

Q: And the “viability of transfected yeast cells in selective medium (interaction)” value [5]?
A: Its value is “specifically interacts with its target peptide”.

Q: What about the “viability of transfected yeast cells in selective medium (interaction)” value ([5]; listed as PGADT7-PDZ) of the same molecule?
A: Its value is “allow viability”.
